B1: S-E6 full-length human IgG4e1(S228P) antibody (antibody, V domains shown)
VH: QVTLRESGPGLVKPSETLSLTCAVSGGSLSSVNYYWSWIRQHPGKGLEWIGYIYYSGSTNYNPSLKSRVTMSLDTSKNQFSLKLSSVTAADTAVYYCATPGAIMGALHIWGQGTLVTVSS
VL: QAVLTQPSSASSTPGQRVIISCSGSSSNIGSNTVSWYQQVPGAAPKLLIYFDYRRPSGVPDRFSGTRSGTSASLGISGLQSEDEADYYCAAWDDSLSAWVFGRGTKLTVL
B2: S-E6 Fab (Fab, V domains shown)
VH: B1 VH
VL: B1 VL
B3: S-B8 Fab (Fab, V domains shown)
VH: QVQLVQSGGGLIQPGGSLRLSCAASGFTVSLSHMNWVRQAPGKGLEWVSITYGDGNSDYADSVKGRFTISRDNSKNTLYLQMNSLRAEDTAVYYCAREYYYGMDVWGQGTTVTVSS
VL: not shown
B4: S-B8 full-length human IgG4e1(S228P) antibody (antibody, V domains shown)
VH: B3 VH
VL: not shown

Experiments:
[1] = target: SARS-CoV-2 spike RBD (S-RBD), hFc tag removed by thrombin digestion, biotinylated (SARS-CoV-2, UniProt P0DTC2 319-541); assay: BLI
[2] = target: SARS-CoV-2 RBD titrated over immobilised Fabs (construct not stated) (SARS-CoV-2, UniProt P0DTC2 319-541); assay: BLI

Binder | koff [1] [s⁻¹] | koff [2] [s⁻¹]
B1 | 0.000865 | 
B2 |  | 0.00196
B3 |  | 0.0027
B4 | 0.00267 | 
